Measurements from publication PMC11215335 (The Journal of Biological Chemistry, 2024).

Columns and labels:
Assay in all cases: ELISA; polyreactivity assay, second experiment (Fig. 3D): antigen coated at constant concentration (proteins 5 ug/ml, bicarbonate buffer pH 9.6); mAb, Fab or scFv serially diluted two-fold from 34 nM Fv; 1 h at 37 C; alkaline phosphatase-conjugated secondary antibody; 'saturating Ag conditions'
Settings in all cases: both partners purified
actin = actin (Bos taurus (muscle actin, assumed from …, UniProt P68138))
tubulin = molecular target: T1, tubulin (Sus scrofa (brain tubulin, assumed from …, UniProt P02550;P02554))
T1 construct: tubulin alpha chain; Cytoskeleton T240-A; tubulin beta chain; As I recall, this catalogue item is tubulin purified from porcine brain (a mix of isotypes); source: bought: Cytoskeleton, Inc (T240-A)

thyroglobulin = molecular target: T2, thyroglobulin (Bos taurus (assumed from catalogue item …, UniProt P01267))
T2 construct: thyroglobulin, Sigma T1001; As I recall, this catalogue item is thyroglobulin from bovine thyroid; source: bought: Sigma (T1001)

Measured: binding result

T1 sequence (P02554 whole entry, looked up, chain 1 of 2): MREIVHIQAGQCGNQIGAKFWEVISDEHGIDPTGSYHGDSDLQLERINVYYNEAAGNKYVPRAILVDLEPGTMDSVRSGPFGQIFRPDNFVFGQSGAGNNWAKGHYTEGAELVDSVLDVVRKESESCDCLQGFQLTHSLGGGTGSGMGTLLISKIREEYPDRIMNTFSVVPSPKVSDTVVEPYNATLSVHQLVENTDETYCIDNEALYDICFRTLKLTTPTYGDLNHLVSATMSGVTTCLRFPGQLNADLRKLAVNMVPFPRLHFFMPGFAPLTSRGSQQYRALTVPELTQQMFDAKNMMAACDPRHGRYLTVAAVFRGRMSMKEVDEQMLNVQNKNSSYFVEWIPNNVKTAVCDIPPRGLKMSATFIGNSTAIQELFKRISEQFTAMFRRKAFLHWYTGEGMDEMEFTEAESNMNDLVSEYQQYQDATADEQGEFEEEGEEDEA
T1 sequence (P02550 whole entry, looked up, chain 2 of 2): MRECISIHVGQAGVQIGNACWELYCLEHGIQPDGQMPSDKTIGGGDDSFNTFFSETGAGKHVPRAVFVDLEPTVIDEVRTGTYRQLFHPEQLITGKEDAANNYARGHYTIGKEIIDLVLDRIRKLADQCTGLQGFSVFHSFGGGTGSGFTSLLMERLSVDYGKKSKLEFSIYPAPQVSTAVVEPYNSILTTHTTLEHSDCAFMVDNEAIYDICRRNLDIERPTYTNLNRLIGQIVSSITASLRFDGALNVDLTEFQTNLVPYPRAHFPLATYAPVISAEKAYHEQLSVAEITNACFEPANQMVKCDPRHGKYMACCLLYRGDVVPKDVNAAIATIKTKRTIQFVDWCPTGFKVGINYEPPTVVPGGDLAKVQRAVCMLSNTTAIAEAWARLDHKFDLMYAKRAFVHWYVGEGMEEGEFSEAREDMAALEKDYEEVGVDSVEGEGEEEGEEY
T2 sequence (P01267 20-2769): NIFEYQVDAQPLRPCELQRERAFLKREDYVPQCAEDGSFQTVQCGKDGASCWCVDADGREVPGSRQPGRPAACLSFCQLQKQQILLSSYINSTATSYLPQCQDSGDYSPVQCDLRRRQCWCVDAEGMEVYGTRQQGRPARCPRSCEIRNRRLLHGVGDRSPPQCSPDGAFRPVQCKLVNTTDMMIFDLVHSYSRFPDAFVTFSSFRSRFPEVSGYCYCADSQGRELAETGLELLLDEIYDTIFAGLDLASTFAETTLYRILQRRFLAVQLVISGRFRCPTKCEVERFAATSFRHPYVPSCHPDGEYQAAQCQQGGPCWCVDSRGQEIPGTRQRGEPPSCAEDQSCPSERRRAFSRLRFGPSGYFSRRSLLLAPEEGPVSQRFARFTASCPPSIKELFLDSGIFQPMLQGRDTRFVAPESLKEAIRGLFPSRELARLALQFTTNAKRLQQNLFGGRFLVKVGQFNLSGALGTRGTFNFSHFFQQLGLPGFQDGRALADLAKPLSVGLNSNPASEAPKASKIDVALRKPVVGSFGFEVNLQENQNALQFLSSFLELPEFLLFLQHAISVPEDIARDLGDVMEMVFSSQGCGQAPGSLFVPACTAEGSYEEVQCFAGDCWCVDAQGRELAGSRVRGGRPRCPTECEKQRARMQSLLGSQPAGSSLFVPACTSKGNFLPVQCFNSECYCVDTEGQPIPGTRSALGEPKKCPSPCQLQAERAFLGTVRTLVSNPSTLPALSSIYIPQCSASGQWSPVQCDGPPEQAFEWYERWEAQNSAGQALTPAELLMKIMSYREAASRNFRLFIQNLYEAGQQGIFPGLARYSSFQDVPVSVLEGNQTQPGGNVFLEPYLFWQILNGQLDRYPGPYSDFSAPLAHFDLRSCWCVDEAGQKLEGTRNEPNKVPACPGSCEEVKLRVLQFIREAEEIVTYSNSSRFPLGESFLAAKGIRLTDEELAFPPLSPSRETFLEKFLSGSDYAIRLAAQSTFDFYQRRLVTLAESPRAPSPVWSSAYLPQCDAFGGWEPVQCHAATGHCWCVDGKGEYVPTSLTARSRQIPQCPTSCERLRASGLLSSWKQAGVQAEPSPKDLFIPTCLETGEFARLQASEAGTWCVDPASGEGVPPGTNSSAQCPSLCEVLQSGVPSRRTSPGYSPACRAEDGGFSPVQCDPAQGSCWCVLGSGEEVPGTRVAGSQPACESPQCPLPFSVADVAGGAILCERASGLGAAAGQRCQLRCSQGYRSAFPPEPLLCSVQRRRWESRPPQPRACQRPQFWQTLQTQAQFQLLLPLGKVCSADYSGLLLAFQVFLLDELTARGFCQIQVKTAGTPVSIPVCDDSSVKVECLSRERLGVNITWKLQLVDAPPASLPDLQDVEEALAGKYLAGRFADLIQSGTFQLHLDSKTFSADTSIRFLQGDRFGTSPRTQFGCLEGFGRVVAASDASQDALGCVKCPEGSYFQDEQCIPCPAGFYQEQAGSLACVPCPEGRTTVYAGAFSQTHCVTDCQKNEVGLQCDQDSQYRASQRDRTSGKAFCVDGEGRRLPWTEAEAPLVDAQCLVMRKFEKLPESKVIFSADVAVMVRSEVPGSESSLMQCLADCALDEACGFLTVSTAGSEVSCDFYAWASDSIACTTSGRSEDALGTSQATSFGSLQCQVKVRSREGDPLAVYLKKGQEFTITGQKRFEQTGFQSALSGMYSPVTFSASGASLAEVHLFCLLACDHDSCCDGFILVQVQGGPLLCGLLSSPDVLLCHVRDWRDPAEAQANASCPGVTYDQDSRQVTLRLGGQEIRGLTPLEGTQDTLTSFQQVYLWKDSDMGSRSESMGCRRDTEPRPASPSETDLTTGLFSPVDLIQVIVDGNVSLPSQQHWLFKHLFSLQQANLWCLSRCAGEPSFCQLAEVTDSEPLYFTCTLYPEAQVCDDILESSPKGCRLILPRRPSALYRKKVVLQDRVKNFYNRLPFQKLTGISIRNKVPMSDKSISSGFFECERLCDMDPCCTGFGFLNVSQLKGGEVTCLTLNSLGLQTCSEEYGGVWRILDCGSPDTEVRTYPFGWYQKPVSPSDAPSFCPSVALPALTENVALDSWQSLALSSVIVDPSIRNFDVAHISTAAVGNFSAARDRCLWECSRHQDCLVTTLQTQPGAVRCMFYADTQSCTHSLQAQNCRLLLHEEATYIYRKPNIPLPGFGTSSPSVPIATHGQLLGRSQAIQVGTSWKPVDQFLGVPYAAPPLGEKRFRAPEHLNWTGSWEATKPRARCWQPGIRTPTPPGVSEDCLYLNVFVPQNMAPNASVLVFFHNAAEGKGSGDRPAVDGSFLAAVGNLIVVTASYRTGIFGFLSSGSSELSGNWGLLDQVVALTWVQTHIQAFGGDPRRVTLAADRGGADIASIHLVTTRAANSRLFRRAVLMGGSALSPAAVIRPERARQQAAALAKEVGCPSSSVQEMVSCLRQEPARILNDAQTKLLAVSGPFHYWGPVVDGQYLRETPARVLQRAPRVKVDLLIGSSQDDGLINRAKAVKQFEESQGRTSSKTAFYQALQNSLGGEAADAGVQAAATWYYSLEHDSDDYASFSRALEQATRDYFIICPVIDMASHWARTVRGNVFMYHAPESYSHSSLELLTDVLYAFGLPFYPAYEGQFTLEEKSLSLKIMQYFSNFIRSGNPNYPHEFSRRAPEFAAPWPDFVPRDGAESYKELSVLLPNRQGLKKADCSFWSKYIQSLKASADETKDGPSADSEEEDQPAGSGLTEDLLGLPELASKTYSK

B1: single-chain Fv antibody fragment 18B7 (scFv, V domains shown)
VH: DVKLVESGGGLVKLGGSLKLSCVASGFTCSSYFMSWVRQTPEKRLELVAMINNNGDKTYYPDTVKGRFTISRDNAKNTLYLQMSSLKSEDTAMYYCARRDGTFGNHFDYWGQGTTLTVSS
VL: DVVMTQTPLSLPVSAGDQASISCRSSQSLCHSNGNTYLHWYLQKPGQSPKLLIYKVSNRFSGVPDKFSGSGSGTDFTLKISRVEAEDLGVYFCSQSTHVPWTFGGGTKLEIK
notes: VL of mAb 18B7; 15-residue linker, printed as (GGS)5 in the methods; the results call it (Gly4Ser)3; VH of mAb 18B7; A pelB leader was appended to the N-terminus; The tandem FLAG and His6 tags are at the C-terminus; also called scFv 18B7; scFv; source: E. coli BL21 STAR (pET22b+); also soluble in the periplasm; not shown: His6, C-terminal, kept
binds: all assays above
